The values below are quoted from earlier work in paper PMC7692841.

In series [1] the target is ABRAXAS phosphopeptide (Homo sapiens) (UniProt Q6UWZ7). In words: ITC.
Series [2] has as its target ATRIP phosphopeptide (Homo sapiens) (UniProt Q8WXE1). In words: ITC.
Series [3] has as its target BACH1 phosphopeptide (Homo sapiens) (UniProt Q9BX63). Put plainly: ITC. For orientation: ITC needs no label: the signal is the heat of the interaction.
For series [4], the target named is BRCA1-A complex (Homo sapiens) (UniProt Q6UWZ7).

Chain of BRCA1 BRCT (P38398 1646-1859): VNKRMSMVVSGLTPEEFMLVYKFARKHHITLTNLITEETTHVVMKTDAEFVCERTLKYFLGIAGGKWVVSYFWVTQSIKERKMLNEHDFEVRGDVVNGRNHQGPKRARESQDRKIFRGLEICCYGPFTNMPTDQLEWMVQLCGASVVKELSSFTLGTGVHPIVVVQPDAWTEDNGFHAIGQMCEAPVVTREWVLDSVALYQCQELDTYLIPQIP
Chain of BACH1 phosphopeptide (Homo sapiens) (Q9BX63 whole entry): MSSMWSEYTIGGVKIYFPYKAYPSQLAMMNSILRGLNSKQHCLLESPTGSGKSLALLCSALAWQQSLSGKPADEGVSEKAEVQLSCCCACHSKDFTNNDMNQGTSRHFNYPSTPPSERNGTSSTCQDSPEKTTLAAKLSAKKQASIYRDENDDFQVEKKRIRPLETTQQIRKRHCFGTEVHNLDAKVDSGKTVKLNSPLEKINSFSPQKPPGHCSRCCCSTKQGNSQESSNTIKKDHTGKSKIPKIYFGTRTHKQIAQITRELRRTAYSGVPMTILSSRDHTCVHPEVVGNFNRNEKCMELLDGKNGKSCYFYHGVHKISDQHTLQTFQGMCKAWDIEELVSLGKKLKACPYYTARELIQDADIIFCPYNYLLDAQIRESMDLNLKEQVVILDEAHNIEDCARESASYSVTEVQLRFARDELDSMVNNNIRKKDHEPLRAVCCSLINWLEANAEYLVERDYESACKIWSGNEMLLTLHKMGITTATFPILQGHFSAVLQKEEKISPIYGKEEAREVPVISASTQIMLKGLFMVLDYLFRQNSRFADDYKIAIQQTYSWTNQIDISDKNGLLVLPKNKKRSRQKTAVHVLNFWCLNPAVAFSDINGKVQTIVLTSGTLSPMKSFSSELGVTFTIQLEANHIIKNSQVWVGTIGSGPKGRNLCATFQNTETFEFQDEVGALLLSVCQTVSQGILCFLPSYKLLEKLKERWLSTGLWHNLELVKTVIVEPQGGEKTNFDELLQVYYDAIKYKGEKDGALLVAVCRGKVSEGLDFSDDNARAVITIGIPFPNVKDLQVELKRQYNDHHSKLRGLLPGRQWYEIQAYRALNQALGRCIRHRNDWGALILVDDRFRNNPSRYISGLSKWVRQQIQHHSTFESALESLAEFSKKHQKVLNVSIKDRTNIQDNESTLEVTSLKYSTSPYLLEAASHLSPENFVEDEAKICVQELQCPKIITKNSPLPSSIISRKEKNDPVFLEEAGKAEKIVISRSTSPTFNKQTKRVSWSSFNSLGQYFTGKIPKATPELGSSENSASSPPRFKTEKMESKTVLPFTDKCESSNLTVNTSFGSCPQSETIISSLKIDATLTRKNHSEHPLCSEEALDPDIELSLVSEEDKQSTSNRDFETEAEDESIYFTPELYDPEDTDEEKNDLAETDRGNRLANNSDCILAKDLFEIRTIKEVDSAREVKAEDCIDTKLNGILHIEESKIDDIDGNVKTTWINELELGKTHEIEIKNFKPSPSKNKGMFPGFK
Chain of ATRIP phosphopeptide (Homo sapiens) (Q8WXE1 whole entry): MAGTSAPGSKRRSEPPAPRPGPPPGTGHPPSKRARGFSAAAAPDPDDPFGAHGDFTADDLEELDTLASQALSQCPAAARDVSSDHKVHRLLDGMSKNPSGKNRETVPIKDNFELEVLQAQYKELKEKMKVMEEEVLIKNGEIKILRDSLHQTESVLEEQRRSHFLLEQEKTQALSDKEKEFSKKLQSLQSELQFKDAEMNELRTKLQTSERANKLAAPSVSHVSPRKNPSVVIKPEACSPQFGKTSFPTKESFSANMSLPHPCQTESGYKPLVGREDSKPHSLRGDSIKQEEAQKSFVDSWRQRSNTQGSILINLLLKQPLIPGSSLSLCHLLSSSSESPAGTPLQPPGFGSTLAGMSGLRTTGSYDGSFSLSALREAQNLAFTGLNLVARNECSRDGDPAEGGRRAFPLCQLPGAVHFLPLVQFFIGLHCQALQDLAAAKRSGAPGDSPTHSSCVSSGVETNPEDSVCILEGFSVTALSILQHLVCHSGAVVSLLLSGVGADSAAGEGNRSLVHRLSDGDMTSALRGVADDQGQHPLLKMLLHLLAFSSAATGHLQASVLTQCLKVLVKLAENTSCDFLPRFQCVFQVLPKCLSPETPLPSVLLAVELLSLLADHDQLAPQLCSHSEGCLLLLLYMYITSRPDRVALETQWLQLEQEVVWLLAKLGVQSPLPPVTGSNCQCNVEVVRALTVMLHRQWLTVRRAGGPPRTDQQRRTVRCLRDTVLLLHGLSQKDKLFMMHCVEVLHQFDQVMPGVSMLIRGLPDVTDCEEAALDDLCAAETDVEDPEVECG
Chain of ABRAXAS phosphopeptide (Homo sapiens) (Q6UWZ7 whole entry): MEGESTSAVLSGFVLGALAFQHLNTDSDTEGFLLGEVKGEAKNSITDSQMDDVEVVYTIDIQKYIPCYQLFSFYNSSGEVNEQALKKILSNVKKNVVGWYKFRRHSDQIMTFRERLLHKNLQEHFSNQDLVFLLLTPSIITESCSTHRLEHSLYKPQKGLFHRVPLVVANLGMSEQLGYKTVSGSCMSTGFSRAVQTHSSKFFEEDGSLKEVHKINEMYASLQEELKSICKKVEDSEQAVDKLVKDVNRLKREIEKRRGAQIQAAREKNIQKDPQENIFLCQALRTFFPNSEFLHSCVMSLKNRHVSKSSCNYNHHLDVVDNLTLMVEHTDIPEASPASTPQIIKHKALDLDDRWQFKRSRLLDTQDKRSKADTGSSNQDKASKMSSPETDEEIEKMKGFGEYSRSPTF

In general, Kd refers to the constant that tells how readily two partners part at equilibrium. Consider BRCA1 BRCT (from UniProt P38398), for which the Kd in series [1] was 1.2 µM; in series [2] it was 28.2 µM; in series [3], 0.7 µM; in series [4] it was 0.08 µM.
